Experimental data as given in article PMC3791423.

Legend:
[1] = molecular target: PspA_(1–186) (E. coli) (UniProt P0AFM6)
[2] = molecular target: single-chain linked PspF_(1–275) WT/W56A dimer (E. coli) (UniProt P37344); assay: SEC; linked PspF_(1–275) dimers injected at 70 μM, without and with PspA_(1–186), no nucleotide, 4 °C, Yarra Sec-S3000 column; apparent oligomers
[3] = molecular target: PspA_(1–186) (E. coli) (UniProt P0AFM6); assay: as above
[4] = molecular target: single-chain linked PspF_(1–275) WT/WT dimer (E. coli) (UniProt P37344); assay: as above

## single-chain linked PspF_(1–275) WT/W56A dimer (from UniProt P37344 1-275; P37344 1-275)
[1]
  reduction of RPO formation (supercoiled nifH promoter) in the presence of PspA (1–186): 10%
[2]
  stoichiometry N (PspF (1–275) subunits): 6

## single-chain linked PspF_(1–275) WT/WT dimer (from UniProt P37344 1-275; P37344 1-275)
[1]
  reduction of RPO formation (supercoiled nifH promoter) in the presence of PspA (1–186): 100%
[3]
  stoichiometry N (PspA (1–186) subunits per PspF hexamer): 6
[4]
  stoichiometry N (PspF (1–275) subunits): 6
